In patent publication US20050182242A1, “Global analysis of protein activities using proteome chips” (priority 2001, published 2005):

Tested on: PI(3,4,5)P3 liposomes
Test: Yeast proteome chip probed with PI(3,4,5)P3 liposomes
Conditions: liposome binding signal on yeast proteome chip, Cy3-streptavidin detection
Description: To identify PI-binding proteins in yeast, liposomes were used as probes because the liposome provides the most relevant physiological condition to assay the interactors. Six types of liposomes were used. Each contains phosphatidylcholine (“PC”) with 1% (w/w) N-(biotinoyl)-1,2-dihexadecanoyl-sn-glycero-3-phosphoethanolamine, triethylammonium salt (biotin DHPE). The biotinylated lipid serves as a label that can be detected by Cy3-streptavidin (21). In addition to PC, the five other liposomes contain either 5% (w/w) PI(3)P, PI(4)P, PI(3,4)P2, PI(4,5)P2, or PI(3,4,5)P3 (FIG. 3A).
The protein-liposome interaction was assayed as follows. Appropriate amounts of each lipid in chloroform were mixed and dried under nitrogen. The lipid mixture was resuspended in TBS buffer by vortexing. The liposomes were created by sonication. Blocked proteome chips were washed three to five times in PBS buffer, and the extra liquid on the glass surface was removed by tapping the slides vertically on a KIMWIPE™. 200 μl of liposome solution was added to the proteome chip and immediately covered by a hydrophobic plastic cover slip (GRACE BIO-LAB™, USA). After trapped air bubbles were removed, the chip was incubated in a humidity chamber at RT for one hour. To remove the cover slip, the chip was immersed into large volume of PBS buffer (50 ml), so that the slip would float away. The chip was then moved to a second PBS bath (>50 ml) and washed 3×5 min with shaking at RT. After removing extra liquid on the surface of the chip, about 100 μl of Cy3 or Cy5 conjugated streptavidin (PIERCE™, USA; 1:2000 to 1:4000 dilution) was added to the surface and covered by a hydrophobic plastic cover slip (GRACE BIO-LABS™, USA). The chip was incubated for greater than 30 min in the dark at RT. The chip was then washed as described above. To completely remove the liquid on the chip, the chip was spun to dryness at 1500-2000 rpm for 5-10 min at RT.
• 1. S. Fields, Y. Kohara, D. J. Lockhart, Proc. Natl. Acad. Sci. 96, 8825 (1999); A. Goffeau et al., Science 274, 563 (1996). • 2 P. Ross-Macdonald et al., Nature 402, 413 (1999); J. L., DeRisi, V. R. Iyer, P. O. Brown, Science 278, 680 (1997); E. A. Winzeler et al., Science 285, 901 (1999). P. Uetz et al., Nature 403, 623 (2000); T. Ito et al., Proc. Natl. Acad. Sci. USA. 97, 1143 (2000) • 3 H. Zhu, M. Snyder, Curr. Opin. Chem. Biol. 5, 40 (2001). • 4 M. R. Martzen et al., Science 286, 1153 (1999). • 5 H. Zhu et al., Nat. Genet. 26, 283 (2000). • 6 G. MacBeath, S. L. Schreiber, Science 289, 1760 (2000). • 7 A. Caveman, J. Cell Sci. 113, 3543 (2000). • 8 P. Arenkov et al., Anal. Biochem 278, 123 (2000). • 9 D. A. Mitchell, T. K. Marshall, R. J. Deschenes, Yeast 9, 715 (1993). The expression vector pEGH was created by inserting an RGS-HisX6 epitope tag between the GST gene and the polycloning site of pEG(KG). The yeast ORFs were cloned using the strategy described previously (5), except every step was done in a 96-well format. Plasmid DNAs confirmed by DNA sequencing were reintroduced into both yeast (Y258) and E. coli (DH5a). […] 0.1 mM calcium was present in buffers in all subsequent steps. The chip was washed three times with PBS at RT. Cy3-conjugated streptavidin (Jackson IR, USA) (1:5000 dilution) was added to the chip and incubated for 30 min at RT. After extensive washing, the chip was spun dry and scanned using a microarray scanner; the data was subsequently acquired with the GENEPIX™ array densitometry software (Axon, USA). • 12 S. S. Hook, A. R. Means, Annu. Rev. Pharmacol. Toxicol.41, 471 (2001). • 13 M. S. Cyert, R. Kunisawa, D. Kaim, J. Thorner, Proc. Natl. Acad. Sci. USA 88, 7376 (1991). • 14 D. A. Stirling, K. A. Welch, M. J. Stark, EMBO J. 13, 4329 (1994). • 15 F. Bohl, Kruse, EMBO J. 19, 5514 (2000); E. Bertrand et al., Mol. Cell 2, 437 (1998). • 16 D. C. Winter, E. Y. Choe, R. Li, Proc. Nat. Acad Sci. USA 96, 7288 (1999). • 17 C.

## RIM15: yeast protein kinase, regulator of glucose metabolism, GST-HisX6 fusion
  PI(3, 4, 5)P3: 1219.28
